These results are taken from PMC5834165, “Crystal structures of PCNA mutant proteins defective in gene silencing suggest a novel interaction site on the front face of the PCNA ring” (PLoS ONE, 2018).

Substitutions are numbered along the chain they refer to. In names and notes the source's numbering stands.

First the molecules themselves.
B1: D41A/D42A mutant PCNA protein from Saccharomyces cerevisiae (natural protein)
chain: MLEAKFEEASLFKRIIDGFKDCVQLVNFQCKEDGIIAQAVAASRVLLVSLEIGVEAFQEYRCDHPVTLGMDLTSLSKILRCGNNTDTLTLIADNTPDSIILLFEDTKKDRIAEYSLKLMDIDADFLKIEELQYDSTLSLPSSEFSKIVRDLSQLSDSINIMITKETIKFVADGDIGSGSVIIKPFVDMEHPETSIKLEMDQPVDLTFGAKYLLDIIKGSSLSDRVGIRLSSEAPALFQFDLKSGFLQFFLAPKFNDEE
notes: PCNA, Saccharomyces cerevisiae, with D41A and D42A; also called D41A/D42A PCNA; encoded by the pol30-6 allele; source: E. coli, overexpressed, purified as described previously [35]
B2: R61A/D63A mutant PCNA protein from Saccharomyces cerevisiae (natural protein)
chain: B1 chain with A41D, A42D, R61A, D63A
notes: PCNA, Saccharomyces cerevisiae, with R61A and D63A; also called R61A/D63A PCNA; encoded by the pol30-8 allele; source: E. coli, overexpressed, purified as described previously [35]
B3: L126A/I128A mutant PCNA protein from Saccharomyces cerevisiae (natural protein)
chain: B1 chain with A41D, A42D, L126A, I128A
notes: PCNA, Saccharomyces cerevisiae, with L126A and I128A; also called L126A/I128A PCNA; encoded by the pol30-79 allele; source: E. coli, overexpressed, purified as described previously [35]

This series deals with the molecule itself. The series is described as follows: native gel or EMSA; proteins at 0.1, 0.5, 1.0 mg/ml in 10 mM Tris-Cl pH 7.6, 150 mM NaCl, 2.5% Ficoll-400, 10 mM EDTA, 5 min; 4-20% gradient nondenaturing Tris-Glycine gel at 4°C; Coomassie blue; self-association (trimer). For orientation: In EMSA bound probe runs differently from free probe, usually more slowly.
The stoichiometry N is a count of units in the complex or per binding partner. With B1, the “stoichiometry N” value amounted to 3.

B2: the “stoichiometry N” value worked out at 3.

With B3, the “stoichiometry N” value was 3.
